Data on 3 molecules can be found in paper PMC10842050 (Journal of molecular biology, 2023).

Series [1] concerns the molecule itself. In words: cryo-EM structure.
The target in series [2] is T1, P22 portal protein gp1 (bacteriophage P22), P26744.
T1 chain: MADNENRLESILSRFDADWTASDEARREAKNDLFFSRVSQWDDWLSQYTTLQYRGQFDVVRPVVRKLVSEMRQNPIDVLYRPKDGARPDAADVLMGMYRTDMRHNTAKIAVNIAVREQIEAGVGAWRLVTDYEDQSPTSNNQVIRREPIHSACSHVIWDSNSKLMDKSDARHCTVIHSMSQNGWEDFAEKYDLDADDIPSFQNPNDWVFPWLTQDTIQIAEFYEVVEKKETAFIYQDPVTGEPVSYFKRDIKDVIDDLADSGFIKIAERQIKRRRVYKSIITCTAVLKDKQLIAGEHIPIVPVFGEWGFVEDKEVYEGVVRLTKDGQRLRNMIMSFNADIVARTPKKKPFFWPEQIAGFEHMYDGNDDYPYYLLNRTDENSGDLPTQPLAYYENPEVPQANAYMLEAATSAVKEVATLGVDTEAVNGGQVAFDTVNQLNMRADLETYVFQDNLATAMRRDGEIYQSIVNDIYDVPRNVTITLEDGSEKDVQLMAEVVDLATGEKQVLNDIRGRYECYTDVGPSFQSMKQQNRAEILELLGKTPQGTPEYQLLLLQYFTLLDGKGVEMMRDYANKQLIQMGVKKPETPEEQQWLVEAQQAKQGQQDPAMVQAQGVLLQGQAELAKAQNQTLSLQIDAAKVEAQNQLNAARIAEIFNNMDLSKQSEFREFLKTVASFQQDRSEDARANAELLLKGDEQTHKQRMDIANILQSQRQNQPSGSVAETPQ
In words: cryo-EM structure. The conditions noted are these: remark: other sources report otherwise.

One may read the stoichiometry N as the number of molecules, sites or subunits per partner or assembly.

B1: P22 tail needle gp26 (natural protein, bacteriophage P22)
chain: MADPSLNNPVVIQATRLDASILPRNVFSKSYLLYVIAQGTDVGAIAGKANEAGQGAYDAQVKNDEQDVELADHEARIKQLRIDVDDHESRITANTKAITALNVRVTTAEGEIASLQTNVSALDGRVTTAENNISALQADYVSKTATTSQSLASPLNVTTSYSVGGKKVLGARQTGWTAATGTANKGVFDADLTFAVSDTYTQSEIQAIANALITERRRTKALEDALRAHGLID
Regarding B1, the “stoichiometry N” value in series [1] amounted to 3.

B2: P22 head-to-tail adapter gp4 (natural protein, bacteriophage P22)
chain: MQIKTKGDLVRAALRKLGVASDATLTDVEPQSMQDAVDDLEAMMAEWYQDGKGIITGYVFSDDENPPAEGDDHGLRSSAVSAVFHNLACRIAPDYALEATAKIIATAKYGKELLYKQTAISRAKRAPYPSRMPTGSGNSFANLNEWHYFPGEQNADSTTPHDEGNG
As to B2, the “stoichiometry N” value in series [1] amounted to 12.

B3: P22 portal protein gp1, P26744 1-725 (natural protein)
chain: MADNENRLESILSRFDADWTASDEARREAKNDLFFSRVSQWDDWLSQYTTLQYRGQFDVVRPVVRKLVSEMRQNPIDVLYRPKDGARPDAADVLMGMYRTDMRHNTAKIAVNIAVREQIEAGVGAWRLVTDYEDQSPTSNNQVIRREPIHSACSHVIWDSNSKLMDKSDARHCTVIHSMSQNGWEDFAEKYDLDADDIPSFQNPNDWVFPWLTQDTIQIAEFYEVVEKKETAFIYQDPVTGEPVSYFKRDIKDVIDDLADSGFIKIAERQIKRRRVYKSIITCTAVLKDKQLIAGEHIPIVPVFGEWGFVEDKEVYEGVVRLTKDGQRLRNMIMSFNADIVARTPKKKPFFWPEQIAGFEHMYDGNDDYPYYLLNRTDENSGDLPTQPLAYYENPEVPQANAYMLEAATSAVKEVATLGVDTEAVNGGQVAFDTVNQLNMRADLETYVFQDNLATAMRRDGEIYQSIVNDIYDVPRNVTITLEDGSEKDVQLMAEVVDLATGEKQVLNDIRGRYECYTDVGPSFQSMKQQNRAEILELLGKTPQGTPEYQLLLLQYFTLLDGKGVEMMRDYANKQLIQMGVKKPETPEEQQWLVEAQQAKQGQQDPAMVQAQGVLLQGQAELAKAQNQTLSLQIDAAKVEAQNQLNAARIAEIFNNMDLSKQSEFREFLKTVASFQQDRSEDARANAELLLKGDEQTHKQRMDIANILQSQRQNQPSGSVAETPQ
Regarding B3, in series [2], the stoichiometry N was 12.
